Results as given in the Human Domainome abundance scans (Beltran et al. 2025).
± gives the uncertainty stated by the source.

B1: COUP transcription factor 1, residues 83 to 159; numbered along this chain, P10589 (parent)
chain: HIECVVCGDKSSGKHYGQFTCEGCKSFFKRSVRRNLTYTCRANRNCPIDQHHRNQCQYCRLKKCLKVGMRREAVQRG

Variants of: B1
Assay: abundance fitness (aPCA) (normalised: wild type 0, dead -1); higher = more abundant; growth selection in yeast, the domain comes from the species named
Conditions: Homo sapiens

Variant | abundance fitness
HIECVVCGDKSSGKHYGQFNCEGCKSFFKRSVRRNLTYTCRANRNCPIDQHHRNQCQYCRLKKCLKVGMRREAVQRG | -0.191 ± 0.14
HIECVVCGDKSSGKHYGQFPCEGCKSFFKRSVRRNLTYTCRANRNCPIDQHHRNQCQYCRLKKCLKVGMRREAVQRG | -0.402 ± 0.087
HIECVVCGDKSSGKHYGQFQCEGCKSFFKRSVRRNLTYTCRANRNCPIDQHHRNQCQYCRLKKCLKVGMRREAVQRG | -0.382 ± 0.12
HIECVVCGDKSSGKHYGQFSCEGCKSFFKRSVRRNLTYTCRANRNCPIDQHHRNQCQYCRLKKCLKVGMRREAVQRG | 0.067 ± 0.046
HIECVVCGDKSSGKHYGQFVCEGCKSFFKRSVRRNLTYTCRANRNCPIDQHHRNQCQYCRLKKCLKVGMRREAVQRG | 0.156 ± 0.038
HIECVVCGDKSSGKHYGQFWCEGCKSFFKRSVRRNLTYTCRANRNCPIDQHHRNQCQYCRLKKCLKVGMRREAVQRG | -0.058 ± 0.051
HIECVVCGDKSSGKHYGQFYCEGCKSFFKRSVRRNLTYTCRANRNCPIDQHHRNQCQYCRLKKCLKVGMRREAVQRG | -0.165 ± 0.11
HIECVVCGDKSSGKHYGQFTAEGCKSFFKRSVRRNLTYTCRANRNCPIDQHHRNQCQYCRLKKCLKVGMRREAVQRG | -0.707 ± 0.098
HIECVVCGDKSSGKHYGQFTDEGCKSFFKRSVRRNLTYTCRANRNCPIDQHHRNQCQYCRLKKCLKVGMRREAVQRG | -1.03 ± 0.26
HIECVVCGDKSSGKHYGQFTEEGCKSFFKRSVRRNLTYTCRANRNCPIDQHHRNQCQYCRLKKCLKVGMRREAVQRG | -0.929 ± 0.15
HIECVVCGDKSSGKHYGQFTGEGCKSFFKRSVRRNLTYTCRANRNCPIDQHHRNQCQYCRLKKCLKVGMRREAVQRG | -0.744 ± 0.054
HIECVVCGDKSSGKHYGQFTHEGCKSFFKRSVRRNLTYTCRANRNCPIDQHHRNQCQYCRLKKCLKVGMRREAVQRG | -0.775 ± 0.36
HIECVVCGDKSSGKHYGQFTIEGCKSFFKRSVRRNLTYTCRANRNCPIDQHHRNQCQYCRLKKCLKVGMRREAVQRG | -0.999 ± 0.37
HIECVVCGDKSSGKHYGQFTKEGCKSFFKRSVRRNLTYTCRANRNCPIDQHHRNQCQYCRLKKCLKVGMRREAVQRG | -0.818 ± 0.23
HIECVVCGDKSSGKHYGQFTLEGCKSFFKRSVRRNLTYTCRANRNCPIDQHHRNQCQYCRLKKCLKVGMRREAVQRG | -0.9 ± 0.15
HIECVVCGDKSSGKHYGQFTMEGCKSFFKRSVRRNLTYTCRANRNCPIDQHHRNQCQYCRLKKCLKVGMRREAVQRG | -1.01 ± 0.22
HIECVVCGDKSSGKHYGQFTNEGCKSFFKRSVRRNLTYTCRANRNCPIDQHHRNQCQYCRLKKCLKVGMRREAVQRG | -0.61 ± 0.19
HIECVVCGDKSSGKHYGQFTPEGCKSFFKRSVRRNLTYTCRANRNCPIDQHHRNQCQYCRLKKCLKVGMRREAVQRG | -0.923 ± 0.18

Variant | abundance fitness
HIECVVCGDKSSGKHYGQFTQEGCKSFFKRSVRRNLTYTCRANRNCPIDQHHRNQCQYCRLKKCLKVGMRREAVQRG | -0.371 ± 0.12
HIECVVCGDKSSGKHYGQFTREGCKSFFKRSVRRNLTYTCRANRNCPIDQHHRNQCQYCRLKKCLKVGMRREAVQRG | -0.845 ± 0.095
HIECVVCGDKSSGKHYGQFTSEGCKSFFKRSVRRNLTYTCRANRNCPIDQHHRNQCQYCRLKKCLKVGMRREAVQRG | -0.757 ± 0.13
HIECVVCGDKSSGKHYGQFTTEGCKSFFKRSVRRNLTYTCRANRNCPIDQHHRNQCQYCRLKKCLKVGMRREAVQRG | -0.742 ± 0.16
HIECVVCGDKSSGKHYGQFTVEGCKSFFKRSVRRNLTYTCRANRNCPIDQHHRNQCQYCRLKKCLKVGMRREAVQRG | -1.09 ± 0.13
HIECVVCGDKSSGKHYGQFTYEGCKSFFKRSVRRNLTYTCRANRNCPIDQHHRNQCQYCRLKKCLKVGMRREAVQRG | -0.974 ± 0.4
HIECVVCGDKSSGKHYGQFTCDGCKSFFKRSVRRNLTYTCRANRNCPIDQHHRNQCQYCRLKKCLKVGMRREAVQRG | -0.025 ± 0.1
HIECVVCGDKSSGKHYGQFTCFGCKSFFKRSVRRNLTYTCRANRNCPIDQHHRNQCQYCRLKKCLKVGMRREAVQRG | -0.226 ± 0.17
HIECVVCGDKSSGKHYGQFTCGGCKSFFKRSVRRNLTYTCRANRNCPIDQHHRNQCQYCRLKKCLKVGMRREAVQRG | 0.089 ± 0.047
HIECVVCGDKSSGKHYGQFTCHGCKSFFKRSVRRNLTYTCRANRNCPIDQHHRNQCQYCRLKKCLKVGMRREAVQRG | -0.504 ± 0.17
HIECVVCGDKSSGKHYGQFTCIGCKSFFKRSVRRNLTYTCRANRNCPIDQHHRNQCQYCRLKKCLKVGMRREAVQRG | -0.495 ± 0.21
HIECVVCGDKSSGKHYGQFTCLGCKSFFKRSVRRNLTYTCRANRNCPIDQHHRNQCQYCRLKKCLKVGMRREAVQRG | -0.089 ± 0.066
HIECVVCGDKSSGKHYGQFTCMGCKSFFKRSVRRNLTYTCRANRNCPIDQHHRNQCQYCRLKKCLKVGMRREAVQRG | 0.01 ± 0.084
HIECVVCGDKSSGKHYGQFTCPGCKSFFKRSVRRNLTYTCRANRNCPIDQHHRNQCQYCRLKKCLKVGMRREAVQRG | -0.038 ± 0.077
HIECVVCGDKSSGKHYGQFTCQGCKSFFKRSVRRNLTYTCRANRNCPIDQHHRNQCQYCRLKKCLKVGMRREAVQRG | 0.181 ± 0.089
HIECVVCGDKSSGKHYGQFTCRGCKSFFKRSVRRNLTYTCRANRNCPIDQHHRNQCQYCRLKKCLKVGMRREAVQRG | -0.504 ± 0.085
HIECVVCGDKSSGKHYGQFTCVGCKSFFKRSVRRNLTYTCRANRNCPIDQHHRNQCQYCRLKKCLKVGMRREAVQRG | -0.064 ± 0.06
HIECVVCGDKSSGKHYGQFTCWGCKSFFKRSVRRNLTYTCRANRNCPIDQHHRNQCQYCRLKKCLKVGMRREAVQRG | -0.061 ± 0.071
